In patent US20230226223A1 (SOLA BIOSCIENCES, published 2023):
Changes are numbered by the printed parent chain. Numbers in names are those of the source. Like-named read-outs stand apart in the source and are kept apart here.

B1: Construct 43, JB1-QBP1-QBP1 (10) (designed binder)
chain: MGKDYYQTLGLARGASDEEIKRAYRRQALRYHPDKNKEPGAEEKFKEIAEAYDVLSDPRKREIFDRYGEEGLKGSSNWKWWPGIFDGGGGSGGGGSSNWKWWPGIFDLE
B2: Construct 44, JB1-QBP1-QBP1 (11) (designed binder)
chain: B1 chain with G87E, G88A, G89A, G90A, S91K, G92E, G93A, G94A, G95A, S96K
B3: Construct 8, JB1(P33Q)-2XQBP1 (designed binder)
chain: MGKDYYQTLGLARGASDEEIKRAYRRQALRYHQDKNKEPGAEEKFKEIAEAYDVLSDPRKREIFDRYGEEGLKGSDIGGGGSGGGGSGGGGSGGGGSAAASNWKWWPGIFDGLESNWKWWPGIFD
B4: Construct 45, JB1-QBP1-QBP1 (12) (designed binder)
chain: MGKDYYQTLGLARGASDEEIKRAYRRQALRYHPDKNKEPGAEEKFKEIAEAYDVLSDPRKREIFDRYGEEGLKGSGGGGSSNWKWWPGIFDGGGGSGGGGSSNWKWWPGIFDLE
B5: Construct 46, JB1-QBP1-QBP1 (13) (designed binder)
chain: B4 chain with G92E, G93A, G94A, G95A, S96K, G97E, G98A, G99A, G100A, S101K
B6: Construct 47, JB1-QBP1-QBP1 (14) (designed binder)
chain: B4 chain with G76E, G77A, G78A, G79A, S80K
B7: Construct 55, QBP1-JB1-QBP1 (2) (designed binder)
chain: MSNWKWWPGIFDLEGKDYYQTLGLARGASDEEIKRAYRRQALRYHPDKNKEPGAEEKFKEIAEAYDVLSDPRKREIFDRYGEEGLKGSGGGSSNWKWWPGIFDLE
B8: Construct 37, JB1-QBP1-QBP1 (4) (designed binder)
chain: MGKDYYQTLGLARGASDEEIKRAYRRQALRYHPDKNKEPGAEEKFKEIAEAYDVLSDPRKREIFDRYGEEGLKGSGGGGSSNWKWWPGIFDEAAAKSNWKWWPGIFDLE
B9: Construct 39, JB1-QBP1-QBP1 (6) (designed binder)
chain: B8 chain with G76E, G77A, G78A, G79A, S80K
B10: Construct 38, JB1-QBP1-QBP1 (5) (designed binder)
chain: B8 chain with E92G, A93G, A94G, A95G, K96S
B11: Construct 40, JB1-QBP1-QBP1 (7) (designed binder)
chain: B8 chain with G76E, G77A, G78A, G79A, S80K, E92G, A93G, A94G, A95G, K96S
B12: Construct 48, JB1-QBP1-QBP1 (15) (designed binder)
chain: MGKDYYQTLGLARGASDEEIKRAYRRQALRYHPDKNKEPGAEEKFKEIAEAYDVLSDPRKREIFDRYGEEGLKGSEAAAKSNWKWWPGIFDEAAAKEAAAKSNWKWWPGIFDLE
B13: Construct 51, JB1-QBP1-QBP1 (18) (designed binder)
chain: MGKDYYQTLGLARGASDEEIKRAYRRQALRYHPDKNKEPGAEEKFKEIAEAYDVLSDPRKREIFDRYGEEGLKGSEAAAKSNWKWWPGIFDLEGGGGSSNWKWWPGIFDLE
B14: Construct 52, JB1-QBP1-QBP1 (19) (designed binder)
chain: B13 chain with E76G, A77G, A78G, A79G, K80S
B15: Construct 41, JB1-QBP1-QBP1 (8) (designed binder)
chain: MGKDYYQTLGLARGASDEEIKRAYRRQALRYHPDKNKEPGAEEKFKEIAEAYDVLSDPRKREIFDRYGEEGLKGSEAAAKSNWKWWPGIFDEAAAKSNWKWWPGIFD
B16: Construct 42, JB1-QBP1-QBP1 (9) (designed binder)
chain: B15 chain with E92G, A93G, A94G, A95G, K96S
B17: Construct 6, QBP1-JB1-QBP1 (designed binder)
chain: MGKPIPNPLLGLDSTGTGSSNWKWWPGIFDEFMGKDYYQTLGLARGASDEEIKRAYRRQALRYHPDKNKEPGAEEKFKEIAEAYDVLSDPRKREIFDRYGEEGLKGSDIGGGGSGGGGSGGGGSGGGGSAAASNWKWWPGIFDGLE
B18: Construct 53, Flag-QBP1-JB1-QBP1-Flag (designed binder)
chain: MDYKDDDDKGGTGSSNWKWWPGIFDEFMGKDYYQTLGLARGASDEEIKRAYRRQALRYHPDKNKEPGAEEKFKEIAEAYDVLSDPRKREIFDRYGEEGLKGSGGGGSGGGGSGGGGSGGGGSAAASNWKWWPGIFDLESRGDYKDDDDK
B19: Construct 12, JB1(1-57)-2XQBP1 (designed binder)
chain: MGKDYYQTLGLARGASDEEIKRAYRRQALRYHPDKNKEPGAEEKFKEIAEAYDVLSDDIGGGGSGGGGSGGGGSGGGGSAAASNWKWWPGIFDGLESNWKWWPGIFD
B20: Construct 10, JB1(19-43)-2XQBP1 (designed binder)
chain: MGTGSEFEIKRAYRRQALRYHPDKNKEPGAEEDIGGGGSGGGGSGGGGSGGGGSAAASNWKWWPGIFDGLESNWKWWPGIFD
B21: Construct 49, JB1-QBP1-QBP1 (16) (designed binder)
chain: MGKDYYQTLGLARGASDEEIKRAYRRQALRYHPDKNKEPGAEEKFKEIAEAYDVLSDPRKREIFDRYGEEGLKGSGGGGSGGGGSGGGGSGGGGSAAASNWKWWPGIFDLEGGGGSSRAAASNWKWWPGIFDLE
B22: Construct 50, JB1-QBP1-QBP1 (17) (designed binder)
chain: B21 chain with G112E, G113A, G114A, G115A, S116K
B23: Construct 3, QBP1-JB1 (designed binder)
chain: MGKPIPNPLLGLDSTGTGSSNWKWWPGIFDEFMGKDYYQTLGLARGASDEEIKRAYRRQALRYHPDKNKEPGAEEKFKEIAEAYDVLSDPRKREIFDRYGEEGLKGSDIAAALE
B24: Construct 56, JB1-JB1-QBP1 (designed binder)
chain: MGKDYYQTLGLARGASDEEIKRAYRRQALRYHPDKNKEPGAEEKFKEIAEAYDVLSDPRKREIFDRYGEEGLKGSGSEFMGKDYYQTLGLARGASDEEIKRAYRRQALRYHPDKNKEPGAEEKFKEIAEAYDVLSDPRKREIFDRYGEEGLKGSGGGGSGGGGSGGGGSGGGGSAAASNWKWWPGIFDLESRGDYKDDDDK
B25: Construct 14, JB1(1-108)-2XQBP1 (designed binder)
chain: MGKDYYQTLGLARGASDEEIKRAYRRQALRYHPDKNKEPGAEEKFKEIAEAYDVLSDPRKREIFDRYGEEGLKGSGPSGGSGGGANGTSFSYTFHGDPHAMFAEFFGGDIGGGGSGGGGSGGGGSGGGGSAAASNWKWWPGIFDGLESNWKWWPGIFD
B26: Construct 9, JB1(20-31)-2XQBP1 (designed binder)
chain: MGTGSEFIKRAYRRQALRYDIGGGGSGGGGSGGGGSGGGGSAAASNWKWWPGIFDGLESNWKWWPGIFD
B27: Construct 7, QBP1-JB1-2XQBP1 (designed binder)
chain: MGKPIPNPLLGLDSTGTGSSNWKWWPGIFDEFMGKDYYQTLGLARGASDEEIKRAYRRQALRYHPDKNKEPGAEEKFKEIAEAYDVLSDPRKREIFDRYGEEGLKGSDIGGGGSGGGGSGGGGSGGGGSAAASNWKWWPGIFDGLESNWKWWPGIFD
B28: Construct 1, JB1 (other)
chain: MGKDYYQTLGLARGASDEEIKRAYRRQALRYHPDKNKEPGAEEKFKEIAEAYDVLSDPRKREIFDRYGEEGLKGSDIAAALESRDYKDDDDK
B29: Construct 5, JB1-3XQBP1 (designed binder)
chain: MGKDYYQTLGLARGASDEEIKRAYRRQALRYHPDKNKEPGAEEKFKEIAEAYDVLSDPRKREIFDRYGEEGLKGSGGGGSGGGGSGGGGSGGGGSGSSNWKWWPGIAAASNWKWWPGILESNWKWWPGIFD
B30: Construct 35, JB1-QBP1-QBP1 (2) (designed binder)
chain: MGKDYYQTLGLARGASDEEIKRAYRRQALRYHPDKNKEPGAEEKFKEIAEAYDVLSDPRKREIFDRYGEEGLKGSSNWKWWPGIFDEAAAKSNWKWWPGIFDLE
B31: Construct 36, JB1-QBP1-QBP1 (3) (designed binder)
chain: B30 chain with E87G, A88G, A89G, A90G, K91S
B32: Construct 2, JB1-QBP1 (designed binder)
chain: MGKDYYQTLGLARGASDEEIKRAYRRQALRYHPDKNKEPGAEEKFKEIAEAYDVLSDPRKREIFDRYGEEGLKGSDIGGGGSGGGGSGGGGSGGGGSAAASNWKWWPGIFDGLE
B33: Construct 54, QBP1-JB1-QBP1 (1) (designed binder)
chain: MSNWKWWPGIFDGKDYYQTLGLARGASDEEIKRAYRRQALRYHPDKNKEPGAEEKFKEIAEAYDVLSDPRKREIFDRYGEEGLKGSSNWKWWPGIFDGDYKDDDDK
B34: Construct 57, JB1-QBP1-JB1-QBP1 (designed binder)
chain: MGKDYYQTLGLARGASDEEIKRAYRRQALRYHPDKNKEPGAEEKFKEIAEAYDVLSDPRKREIFDRYGEEGLKGSGSSNWKWWPGIFDEFMGKDYYQTLGLARGASDEEIKRAYRRQALRYHPDKNKEPGAEEKFKEIAEAYDVLSDPRKREIFDRYGEEGLKGSGGGGSGGGGSGGGGSGGGGSAAASNWKWWPGIFDLESRGDYKDDDDK

Legend:
Assay in all cases: cell-based or functional assay
[1] = target: GFP-HTTQ74 reporter construct
[2] = target: GFP-HTTQ74 reporter construct; remark: listed apart in the source
[3] = target: GFP-HTTQ74 reporter construct; remark: listed apart in the source

Row | Binder | Reduction of Aggregation (%), filter trap assay [1] | further results
1 | B1 | 99.5% | 
2 | B2 | 99.6% | 
3 | B3 |  | % Aggregation (relative to Q74 alone), filter trap assay [2]: 93%
4 | B4 | 91.1% | 
5 | B5 | 100% | 
6 | B6 | 99.7% | 
7 | B7 | 9.45% | 
8 | B8 | 97% | 
9 | B9 | 98.1% | 
10 | B10 | 96.9% | 
11 | B11 | 96% | 
12 | B12 | 100% | 
13 | B13 | 96.5% | 
14 | B14 | 96.9% | 
15 | B15 | 91.1% | 
16 | B16 | 87% | 
17 | B17 |  | % Aggregation (relative to Q74 alone), filter trap assay [3]: 5.62%

Row | Binder | Reduction of Aggregation (%), filter trap assay [1] | further results
18 | B18 | 79.9% | 
19 | B19 |  | % Aggregation (relative to Q74 alone), filter trap assay [2]: 40.3%
20 | B20 |  | % Aggregation (relative to Q74 alone), filter trap assay [2]: 91%
21 | B21 | 82.5% | 
22 | B22 | 90.9% | 
23 | B23 |  | % Aggregation (relative to Q74 alone), filter trap assay [3]: 67.5%
24 | B24 | 68.5% | 
25 | B25 |  | % Aggregation (relative to Q74 alone), filter trap assay [2]: 32%
26 | B26 |  | % Aggregation (relative to Q74 alone), filter trap assay [2]: 91%
27 | B27 |  | % Aggregation (relative to Q74 alone), filter trap assay [3]: 23%
28 | B28 |  | % Aggregation (relative to Q74 alone), filter trap assay [3]: 127%
29 | B29 |  | % Aggregation (relative to Q74 alone), filter trap assay [3]: 41.1%
30 | B30 | 97.9% | 
31 | B31 | 95.7% | 
32 | B32 |  | % Aggregation (relative to Q74 alone), filter trap assay [3]: 75.9%
33 | B33 | 0% | 
34 | B34 | 94.1% | 
